This test deals with T1, human NKp46 (isoform a), expressed on cells (human, UniProt O76036 22-304).
T1 construct: also called huNKp46; Raji-huNKp46 Low
Briefly: IHC on FFPE cell pellets (Raji transfectants, SNK6) and human spleens, antibody at 5 and 10 pg/ml as printed.

T1 sequence (O76036 22-304 Q82K limits assumed): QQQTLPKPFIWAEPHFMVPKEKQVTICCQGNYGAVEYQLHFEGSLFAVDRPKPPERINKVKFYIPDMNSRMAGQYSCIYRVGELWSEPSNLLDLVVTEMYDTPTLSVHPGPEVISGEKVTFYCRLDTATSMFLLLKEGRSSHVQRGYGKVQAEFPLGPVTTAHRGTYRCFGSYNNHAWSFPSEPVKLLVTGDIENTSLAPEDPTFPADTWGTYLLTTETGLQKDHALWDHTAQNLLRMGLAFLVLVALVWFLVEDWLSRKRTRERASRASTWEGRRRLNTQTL

B1: 8E5B antibody (antibody, mouse IgG1, V domains shown)
VH: EIQLQQSGAELVKPGASVKLSCTASGFNIKDTYFHWVKQRPEQGLEWIGRIDPANGNTKYDPKFHDKATIIADISSNTAYLQFSSLTSEDTAVYYCAANRYGYWGQGTTLTVSS
VL: DIVMTQAAPSIPVTPGESVSISCRSSKSLLYINGNTHLFWFLQRPGQSPQLLIYRMSNLASGVPDRFSGSGSGTAFTLRISRVEAEDVGVYYCMQHLEYPFTFGSGTKLEIK
notes: Mouse monoclonal antibody; also called 8E5-B clone; monoclonal antibody 8E5B
With B1, the binding result is recorded as “binds”.

These data come from patent US20180369373A1 (INNATE PHARMA, published 2018).
